For the first experiment, the target named is T1, anti-CD28 Fab (SEQ ID NOs: 202, 203).
T1 construct: biotinylated and captured on neutravidin coated plates in the phage ELISA
T1 sequence (VH, as listed by the source, chain 1 of 2): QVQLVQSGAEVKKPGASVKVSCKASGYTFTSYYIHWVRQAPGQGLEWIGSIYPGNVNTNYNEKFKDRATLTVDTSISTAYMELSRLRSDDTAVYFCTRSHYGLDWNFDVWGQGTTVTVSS
T1 sequence (VL, as listed by the source, chain 2 of 2): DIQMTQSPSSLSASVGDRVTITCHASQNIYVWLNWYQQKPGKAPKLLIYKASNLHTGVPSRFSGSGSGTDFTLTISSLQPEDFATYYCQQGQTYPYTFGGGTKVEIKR
Nature of the experiment: phage binding ELISA on captured biotinylated Fab.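 Note: clonal phage supernatants added to wells preincubated with CD28 antigen or blocking buffer only, bound phage detected by ELISA with horseradish-conjugated anti-M13 antibody.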 For orientation: An ELISA detects its analyte on a solid surface through an enzyme-linked reagent.
Method: (§1) After panning, phage infected bacteria were plated out and colonies picked into 96 well blocks. Clonal phage was then amplified and separated from bacterial cells via centrifugation.
(§2) Clonal phage were harvested as crude supernatants and screened via standard ELISAs. […] Prior to the addition of clonal phage, wells were incubated with blocking buffer and CD28 antigen or blocking buffer alone. Without washing or aspirating, clonal phage supernatants were then added to the wells and incubated for a short time. Wells were then washed followed by detection of bound phage using a horse radish conjugated anti-M13 antibody. Clonal phage of interest were then sent for sequence analysis.
Regarding LCAAGATYPWPLCL [Phage-894], the “Anti-CD28 Fab (SEQ ID NOs: 202, 203) signal” value (“Anti-CD28 Fab” for short) was determined as 2.39. For LCAAGATYAWPLCL [Phage-945], the “Anti-CD28 Fab” value is 2.13.

For the molecule LCAAGASYPWPTCL [Phage-967], the “Anti-CD28 Fab” value was determined as 2. Same read-out and setting: in the case of LCAAGATYPWPFCL [Phage-919] it was 2.28. Consider MCAAGATYPWPACL [Phage-914], for which the “Anti-CD28 Fab” value is 2.3. For YCAAGATYPWPLCL [Phage-952], the “Anti-CD28 Fab” value was 2.08.

In the case of LCAAGFKYPWPLCL [Phage-964], the “Anti-CD28 Fab” value amounted to 2.02. In the case of LCAAGATYPWPTCL [Phage-897], the “Anti-CD28 Fab” value stood at 1.71. Consider MCAAGATYPWPLCL [Phage-970], for which the “Anti-CD28 Fab” value was determined as 1.99.

As to SCSAGAHYPWPQCF [Phage-898], the “Anti-CD28 Fab” value amounted to 1.16. TCSAGATYEWPRCL [Phage-899]: the “Anti-CD28 Fab” value was found to be 1.84. Take TCSAGATYTWPKCF [Phage-891]: the “Anti-CD28 Fab” value stood at 1.87. Same read-out and setting: in the case of TCSEGATYTWPWCF [Phage-954] it was 2.05; in that of PDCQTILFKPWCVR [Phage-4], 2.09; in that of PDCHTILFKPWCVR [Phage-16], 1. As for WCWDYKLWVPMTCP [Phage-11], the “Anti-CD28 Fab” value was determined as 2.51.

For the molecule WICDKSGSIMLCRA [Phage-17], the “Anti-CD28 Fab” value amounted to 0.91.

Consider TCAAGAAWPWPQCL [Phage-890], for which the “Anti-CD28 Fab” value stood at 2.23. With ACDTYFAGMINECF [Phage-5], the “Anti-CD28 Fab” value was 0.92. The same measure, in the same setting: in the case of WCWDYREWVPMTCP [Phage-8] it was 2.3; in that of WCWYYREWVPMTCP [Phage-14], 1.85; in that of TCSAGAAYSWPACF [Phage-896], 1.89. Take SCAAGASYAWPYCL [Phage-18]: the “Anti-CD28 Fab” value stood at 1.49. With YWSCFQIPFTCFYF [Phage-1], the “Anti-CD28 Fab” value worked out at 1.44. Consider GCQYPWAFDAMSCP [Phage-6], for which the “Anti-CD28 Fab” value is 2.38. YWYCSPSIVRCVLV [Phage-15]: the “Anti-CD28 Fab” value was 1.51.

TCSAGAAYPWPLCL [Phage-895]: the “Anti-CD28 Fab” value came out at 2.36. Take YCAGMSTIQLWLKC [Phage-20]: the “Anti-CD28 Fab” value is 2.16. For DCWWMFESYPGRCI [Phage-12], the “Anti-CD28 Fab” value amounted to 1.65. As to WECLKYTEANACTY [Phage-2], the “Anti-CD28 Fab” value was found to be 1.55. For the molecule LCAAGASWPWPVCL [Phage-888], the “Anti-CD28 Fab” value was determined as 2.16. Consider TCSAGAHYPWPICL [Phage-900], for which the “Anti-CD28 Fab” value is 1.78. Consider YCAGHSHEYLAKCE [Phage-24], for which the “Anti-CD28 Fab” value came out at 0.86. Consider WCWDYKLWVPTQCP [Phage-7], for which the “Anti-CD28 Fab” value is 2.27. As for YCAGHMPQYEVKCL [Phage-21], the “Anti-CD28 Fab” value came to 0.22. The same measure, in the same setting: in the case of TCSAGATWAWPLCF [Phage-902] it was 2.31; in that of YCMGHSHEHIWKCL [Phage-23], 0.87; in that of ECHWSMWAVGHACF [Phage-9], 1.77. Consider TCAAGATYLWPTCL [Phage-903], for which the “Anti-CD28 Fab” value was found to be 1.68. The same measure, in the same setting: for FMCLPQNPHPLCFK [Phage-3] the value was 0.84; for TCAAGATWSWPACF [Phage-892], 2.23. Consider SCSAGAAYYWPWCL [Phage-901], for which the “Anti-CD28 Fab” value is 1.9.

Consider TCAAGAAWGWPLCF [Phage-893], for which the “Anti-CD28 Fab” value stood at 2.3.

For YCAGHSPINIGKCL [Phage-10], the “Anti-CD28 Fab” value worked out at 1.49. With YCAGHAWQYINKCL [Phage-13], the “Anti-CD28 Fab” value worked out at 0.64. Still for that read-out and setting: for LCSAGAMYPWPTCL [Phage-922] the value was 2.25; for LCSAGAMWPWPTCL [Phage-908], 2.39. On to LCSAGAMYSWPTCL [Phage-909], for which the “Anti-CD28 Fab” value turned out to be 2.39. Turning to YCAGHTEEHYVKCM [Phage-22], the “Anti-CD28 Fab” value is 0.62. Consider DCPWLSGFSRPLLC [Phage-19], for which the “Anti-CD28 Fab” value was found to be 1.27. Regarding TCAAGAHYPWPACL [Phage-904], the “Anti-CD28 Fab” value worked out at 1.92. Consider HCAAGAHYPWPACL [Phage-968], for which the “Anti-CD28 Fab” value was 2.

In another experiment the target is T2, Anti-CD28 Fab (SEQ ID NOs: 202, 203).
T2 construct: biotinylated and captured on neutravidin coated plates in the phage ELISA
T2 sequence (VH, as listed by the source, chain 1 of 2): as the sequence (VH, as listed by the source, chain 1 of 2) above
T2 sequence (VL, as listed by the source, chain 2 of 2): as the sequence (VL, as listed by the source, chain 2 of 2) above
In words: phage binding ELISA, Fab on plate.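 Note: clonal phage supernatant ELISA, wells preincubated with CD28 antigen or blocking buffer only, then bound phage detected using HRP-linked anti-M13 antibody.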
Method: as §1, §2
For the molecule TCSAVFSYTWSNCF [Phage-1089], the “Anti-CD28 Fab” value stood at 1.54.

In the case of TCSAGATYVWPDCF [Phage-1095], the “Anti-CD28 Fab” value worked out at 1.52. Consider TCAAGASWEWPLCF [Phage-1094], for which the “Anti-CD28 Fab” value was 1.52.

As to TCAAGATWDWPLCF [Phage-1099], the “Anti-CD28 Fab” value turned out to be 1.51.

With TCAAGAAWEWPICF [Phage-1091], the “Anti-CD28 Fab” value came to 1.54. For the molecule SCSAGAMYPWPMCL [Phage-1093], the “Anti-CD28 Fab” value worked out at 1.53. On to TCAAGAMWNWPQCY [Phage-1092], for which the “Anti-CD28 Fab” value was 1.54.

With TCEAVFIYSWPFCL [Phage-1096], the “Anti-CD28 Fab” value is 1.52. As for LCAEGADYPWPMCL [Phage-1098], the “Anti-CD28 Fab” value came to 1.51.
